Measurements taken from PMC4132020.

Biological target: Sso7d-IN with an 11 glycine linker (Sulfolobus solfataricus chromosomal protein Sso7d fused to the N-terminus of HIV-1 integrase) (Sulfolobus solfataricus | HIV-1)
Assay: SEC; Superdex 200 PC 3.2/30, 20 mM HEPES pH 7.5, 20% glycerol, 5 mM DTT, 500 mM NaCl; free protein peak of a scaled-up intasome assembly mixture (with U5-25 DNA, CaCl2, 4 µM ZnCl2) after addition of 500 mM NaCl; position relative to protein standards

## Sso7d-IN with an 11 glycine linker (Sulfolobus solfataricus chromosomal protein Sso7d fused to the N-terminus of HIV-1 integrase) (enzyme)
  stoichiometry N: 4
